Measured values taken from patent US10472401B2, “Peptides and combination of peptides for use in immunotherapy against ovarian cancer and other cancers” (immatics biotechnologies GmbH, priority 2015, dated 2019).

Molecular target: HLA-A*02:01 (Homo sapiens, UniProt P04439, D140Y/D185E/D98H/E176V/E277Q/G131W/G231S/I119V/I121R/I166T/I218V/L300P/L318F/N151K/N90K/P208A/P217A/Q86G/Q94H/R138H/R169H/T345S)
Test: MHC binding assay (UV-ligand exchange, ELISA of stabilized MHC complexes)
Conditions: MHC class I binding score; binding to HLA-A*02:01 ranged by peptide exchange yield (UV-ligand exchange, ELISA)
Excerpt: Candidate peptides for T cell based therapies according to the present invention were further tested for their MHC binding capacity (affinity). The individual peptide-MHC complexes were produced by UV-ligand exchange, where a UV-sensitive peptide is cleaved upon UV-irradiation, and exchanged with the peptide of interest as analyzed. Only peptide candidates that can effectively bind and stabilize the peptide-receptive MHC molecules prevent dissociation of the MHC complexes. To determine the yield of the exchange reaction, an ELISA was performed based on the detection of the light chain (β2m) of stabilized MHC complexes. The assay was performed as generally described in Rodenko et al. (Rodenko et al., 2006).
96 well MAXISorp plates (NUNC) were coated over night with 2 ug/ml streptavidin in PBS at room temperature, washed 4× and blocked for 1h at 37° C. in 2% BSA containing blocking buffer. […] Peptide-MHC monomers of the UV-exchange reaction were diluted 100 fold in blocking buffer. Samples were incubated for 1h at 37° C., washed four times, incubated with 2 ug/ml HRP conjugated anti-82m for 1h at 37° C., washed again and detected with TMB solution that is stopped with […]. Absorption was measured at 450 nm. Candidate peptides that show a high exchange yield (preferably higher than 50%, most preferred higher than 75%) are generally preferred for a generation and production of antibodies or fragments thereof, and/or T cell receptors or fragments thereof, as they show sufficient avidity to the MHC molecules and prevent dissociation of the MHC complexes.

| Substance | Peptide exchange |
| --- | --- |
| 146 (SLATAGDGLIEL; listed as Homo sapiens) [compound 146] | ″++″ (≥20% = ++) |
| 386 (ILFRYPLTI; listed as Homo sapiens) [compound 386] | ″+++″ (≥50% = +++) |
| 57 (TLAELQPPVQL; listed as Homo sapiens) [compound 57] | ″+++″ (≥50% = +++) |
| 433 (AMLNEPWAV; listed as Homo sapiens) [compound 433] | ″+++″ (≥50% = +++) |
| 70 (GLLDYPVGV; listed as Homo sapiens) [compound 70] | ″+++″ (≥50% = +++) |
| 478 (YLLHEKLNL; listed as Homo sapiens) [compound 478] | ″+++″ (≥50% = +++) |
| 487 (LLINSVFHV; listed as Homo sapiens) [compound 487] | ″+++″ (≥50% = +++) |
| 96 (YIFTDNPAAV; listed as Homo sapiens) [compound 96] | ″+++″ (≥50% = +++) |
| 88 (FLLVGDLMAV; listed as Homo sapiens) [compound 88] | ″+++″ (≥50% = +++) |
| 380 (TLIEDEIATI; listed as Homo sapiens) [compound 380] | ″++″ (≥20% = ++) |
| 114 (SLVGEPILQNV; listed as Homo sapiens) [compound 114] | ″++″ (≥20% = ++) |
| 51 (LLPDLEFYV; listed as Homo sapiens) [compound 51] | ″++++″ (≥75% = ++++) |
| 233 (VLSETLYEL; listed as Homo sapiens) [compound 233] | ″++″ (≥20% = ++) |
| 287 (FLNEFFLNV; listed as Homo sapiens) [compound 287] | ″+++″ (≥50% = +++) |
| 76 (ILIDSIYKV; listed as Homo sapiens) [compound 76] | ″+++″ (≥50% = +++) |
| 117 (ILPDGEDFLAV; listed as Homo sapiens) [compound 117] | ″+++″ (≥50% = +++) |
| 566 (VIADGGIQNV; listed as Homo sapiens) [compound 566] | ″++″ (≥20% = ++) |
| 52 (FLLAHGLGFLL; listed as Homo sapiens) [compound 52] | ″++++″ (≥75% = ++++) |
| 390 (ALFMKQIYL; listed as Homo sapiens) [compound 390] | ″+++″ (≥50% = +++) |
| 518 (KLNAEVACV; listed as Homo sapiens) [compound 518] | ″+++″ (≥50% = +++) |
| 346 (LLDSKVPSV; listed as Homo sapiens) [compound 346] | ″+++″ (≥50% = +++) |
| 102 (YLFESEGLVL; listed as Homo sapiens) [compound 102] | ″+++″ (≥50% = +++) |
| 318 (GLINTGVLSV; listed as Homo sapiens) [compound 318] | ″++″ (≥20% = ++) |
| 223 (ALLENIALYL; listed as Homo sapiens) [compound 223] | ″+++″ (≥50% = +++) |

| Substance | Peptide exchange |
| --- | --- |
| 205 (SLYPGTETMGL; listed as Homo sapiens) [compound 205] | ″+++″ (≥50% = +++) |
| 563 (WLLPYNGVTV; listed as Homo sapiens) [compound 563] | ″+++″ (≥50% = +++) |
| 471 (YLYNNMIAKI; listed as Homo sapiens) [compound 471] | ″+++″ (≥50% = +++) |
| 439 (YLLQEIYGI; listed as Homo sapiens) [compound 439] | ″+++″ (≥50% = +++) |
| 352 (SLLELLHIYV; listed as Homo sapiens) [compound 352] | ″+++″ (≥50% = +++) |
| 608 (SLLSVSHAL; listed as Homo sapiens) [compound 608] | ″+++″ (≥50% = +++) |
| 174 (ALAQYLITA; listed as Homo sapiens) [compound 174] | ″+++″ (≥50% = +++) |
| 275 (YLVYILNEL; listed as Homo sapiens) [compound 275] | ″++″ (≥20% = ++) |
| 493 (GLLGEKTQDLIGV; listed as Homo sapiens) [compound 493] | ″+++″ (≥50% = +++) |
| 241 (SLVEVNPAYSV; listed as Homo sapiens) [compound 241] | ″+++″ (≥50% = +++) |
| 508 (ILAQEQLVVGV; listed as Homo sapiens) [compound 508] | ″+++″ (≥50% = +++) |
| 208 (KISPVTFSV; listed as Homo sapiens) [compound 208] | ″+++″ (≥50% = +++) |
| 92 (YLIPFTGIVGL; listed as Homo sapiens) [compound 92] | ″++″ (≥20% = ++) |
| 211 (LLWPGAALL; listed as Homo sapiens) [compound 211] | ″++″ (≥20% = ++) |
| 235 (YLNDLHEVLL; listed as Homo sapiens) [compound 235] | ″++++″ (≥75% = ++++) |
| 193 (QLLDADGFLNV; listed as Homo sapiens) [compound 193] | ″+++″ (≥50% = +++) |
| 164 (ALLPQPKNLTV; listed as Homo sapiens) [compound 164] | ″+++″ (≥50% = +++) |
| 32 (KLDDLTQDLTV; listed as Homo sapiens) [compound 32] | ″++″ (≥20% = ++) |
| 376 (AMFESSQNVLL; listed as Homo sapiens) [compound 376] | ″++″ (≥20% = ++) |
| 451 (LLLLDTVTMQV; listed as Homo sapiens) [compound 451] | ″++″ (≥20% = ++) |
| 300 (ALLGQTFSL; listed as Homo sapiens) [compound 300] | ″+++″ (≥50% = +++) |
| 447 (QLVPALAKV; listed as Homo sapiens) [compound 447] | ″++″ (≥20% = ++) |
| 245 (SMIDDLLGV; listed as Homo sapiens) [compound 245] | ″+++″ (≥50% = +++) |
| 574 (YLLQEPPRTV; listed as Homo sapiens) [compound 574] | ″++″ (≥20% = ++) |

| Substance | Peptide exchange |
| --- | --- |
| 614 (LLLPDQPPYHL; listed as Homo sapiens) [compound 614] | ″+++″ (≥50% = +++) |
| 387 (ALFQATAEV; listed as Homo sapiens) [compound 387] | ″++++″ (≥75% = ++++) |
| 107 (FLQPVDDTQHL; listed as Homo sapiens) [compound 107] | ″+++″ (≥50% = +++) |
| 149 (NLLELFVQL; listed as Homo sapiens) [compound 149] | ″+++″ (≥50% = +++) |
| 374 (FLLQQHLISA; listed as Homo sapiens) [compound 374] | ″++″ (≥20% = ++) |
| 180 (FQIDPHSGLVTV; listed as Homo sapiens) [compound 180] | ″++″ (≥20% = ++) |
| 365 (YVIDQGETDVYV; listed as Homo sapiens) [compound 365] | ″+++″ (≥50% = +++) |
| 281 (ILRESTEEL; listed as Homo sapiens) [compound 281] | ″+++″ (≥50% = +++) |
| 579 (NLMEMVAQL; listed as Homo sapiens) [compound 579] | ″++″ (≥20% = ++) |
| 465 (QLCDLNAEL; listed as Homo sapiens) [compound 465] | ″+++″ (≥50% = +++) |
| 261 (YVLEFLEEI; listed as Homo sapiens) [compound 261] | ″++″ (≥20% = ++) |
| 394 (LLAVIGGLVYL; listed as Homo sapiens) [compound 394] | ″+++″ (≥50% = +++) |
| 159 (GLVGNPLPSV; listed as Homo sapiens) [compound 159] | ″++++″ (≥75% = ++++) |
| 358 (ALDEYTSEL; listed as Homo sapiens) [compound 358] | ″++++″ (≥75% = ++++) |
| 510 (KLYSVVSQL; listed as Homo sapiens) [compound 510] | ″++″ (≥20% = ++) |
| 183 (FGLDLVTEL; listed as Homo sapiens) [compound 183] | ″+++″ (≥50% = +++) |
| 307 (ALPVSLPQI; listed as Homo sapiens) [compound 307] | ″+++″ (≥50% = +++) |
| 178 (ALTEIAFVV; listed as Homo sapiens) [compound 178] | ″++++″ (≥75% = ++++) |
| 578 (FLDPGGPMMKL; listed as Homo sapiens) [compound 578] | ″+++″ (≥50% = +++) |
| 479 (SLFGNSGILENV; listed as Homo sapiens) [compound 479] | ″+++″ (≥50% = +++) |
| 476 (ALMERTGYSMV; listed as Homo sapiens) [compound 476] | ″+++″ (≥50% = +++) |
| 163 (ALDEMGDLLQL; listed as Homo sapiens) [compound 163] | ″+++″ (≥50% = +++) |
| 249 (LLDGFLVNV; listed as Homo sapiens) [compound 249] | ″+++″ (≥50% = +++) |
